pIC50: −log10 of the molar value. Blank lines part the entries; values can stand above or below the compound they belong to. Square brackets hold non-standard residues; d marks the D form. * marks the point of attachment. Cbz = O=C(OCc1ccccc1)*
What was measured:
[1] = molecular target: GST-MKK7 (full-length human MKK7 fused to an N-terminal GST tag) (human) (UniProt O14733); assay: ELISA Gadd45β/MKK7 competition; without serum pre-incubation
[2] = molecular target: GST-MKK7 (full-length human MKK7 fused to an N-terminal GST tag) (human) (UniProt O14733); assay: ELISA Gadd45β/MKK7 competition; after 48-hr pre-incubation with human serum at 37 C
[3] = mouse, in vivo
Protocol: In vitro pharmacokinetic assays were performed according to established, in-house protocols and included: plasma stability (human), thermodynamic solubility (PBS pH 7.4, at 37° C. for 14 days), microsomal stability (human), plasma protein binding (PPB; mouse and human), and distribution coefficient (Log D). In vivo pharmacokinetic analyses were also performed at Cyprotex according to established, in-house protocols. Briefly, the peptides were dissolved in PBS and administered by single intravenous injection to CD1 male mice at the dose of 10 mg/kg (25-30 g of total body weight; n=3 mice per time point per compound). Blood samples were collected in heparinized tubes at up to 7 time points after this injection (i.e. 0.08, 0.25, 0.5, 1, 2, 4 and 8 hr), and the plasma concentrations of the test peptide were determined at each time point by LC-MS/MS, using a five-point standard curve covering a peptide concentration range from 3 to 3,000 ng/mL. Standard curves were prepared using blank plasma matrices and treated in the same manner as the test samples. […] Values were calculated from the data of the peptide plasma concentration versus time curves using a non-compartmental model analysis, as described elsewhere (Groulx, 2006; Landaw and Di Stefano 3rd, 1982). The doses of z-DTP2 and DTP3 predicted to achieve the therapeutic plasma concentration of 1 μM at the steady state were calculated from the measured pharmacokinetic values using the following equation: k0=k1×Vd×Cp (where Vd is expressed in L/kg; Cp is the plasma concentration at the steady state expressed in mg/L; k0 is the zero order input expressed in mg/kg/hr; k1 is the first order elimination constant [0.693/t1/2]).

[4] = system: multiple myeloma cell lines; assay: [3H]thymidine incorporation assay, survival of multiple myeloma cell lines; type: cell-based, human; settings: for cytotoxic activity in multiple myeloma cell lines: 6-day treatment, all lines tested apart from RPMI-8226 and KMM-1; for IC50 values in the sensitive multiple myeloma cell lines: 144 hr, sensitive (Gadd45β-dependent) cell lines
Protocol: (§1) Values express the percentage of live cells present in the treated cultures relative to the live cells present in the respective untreated cultures and denote means±SD ([WM]; n=3). UT, untreated. […] Values express the percentage of inhibition of Gadd45β binding to MKK7 relative to the binding measured in the absence of peptide. […] Co-immunoprecipitations (IP) were performed using an anti-FLAG antibody (a-FLAG); western blots (WB) were developed using an anti-HA or an anti-MKK7 antibody, as shown.
[^3H]Thymidine incorporation and trypan blue exclusion assays were performed using standard methods (Mauro et al., 2011). […] Apoptosis analyses were performed using PI staining as described in Mauro et al., 2011. Additional details are provided in the Supplemental Experimental Procedures.

U266 cells = assay: [3H]thymidine incorporation assay, DTP3 and bortezomib as single agents or in combination, U266; settings: Homo sapiens, U-266, 48 h, read-out: IC50 value as single agent
Protocol: (§2) Treatments with DTP3 were for 6 days; bortezomib was added to the cell cultures 48 hr prior to the measurement of cell viability. For the combination treatment, DTP3 was used at the concentrations of 3 nM in U266 cells and of 10 nM in KMS-12 cells, whereas bortezomib was used at increasing concentrations, as shown.
Viability data from the experiment shown in FIG. 12 were converted into values representing the fraction of cells affected (FA) equaling 0.5 in the drug-treated cultures compared with untreated cultures, and the interaction of DTP3 with bortezomib was analysed according to the Chou-Talalay method (Chou, 2006). Also shown are the drug concentrations giving the FA value of 0.5 and the description of the CI. […]
(§3) [^3H]Thymidine incorporation assays were performed using standard protocols (Griffiths and Sundaram, 2011). […] At 24, 72 or 144 hr, cells were incubated for an additional 16 hr with 0.037 MBq/well of [^3H]thymidine (Amersham), and then harvested onto glass fibre filter mats using a 96-well plate automated Tomtec cell harvester (Receptor Technologies) and analysed by liquid scintillation spectroscopy with a LKB Wallac Trilux Microbeta 3 b-counter (PerkinElmer). Values were expressed as the percentage of the counts per minute (cpm) measured in the treated cultures relative to the cpm measured in the respective untreated cultures. […]

KMS-12 cells = assay: [3H]thymidine incorporation assay, DTP3 and bortezomib as single agents or in combination, KMS-12; settings: Homo sapiens, 48 h, read-out: IC50 value as single agent
Protocol: as §2
Viability data from the experiment shown in FIG. 12 were converted into values representing the fraction of cells affected (FA) equaling 0.5 in the drug-treated cultures compared with untreated cultures, and the interaction of DTP3 with bortezomib was analysed according to the Chou-Talalay method (Chou, 2006). Also shown are the drug concentrations giving the FA value of 0.5 and the description of the CI. Based on the Chou-Talalay equation (Chou, 2006), synergy is present when the CI is less than 1.0 (where values between 0.3 and 0.7 denote synergism, and values between 0.1 and 0.3 denote strong synergism); the combination is additive when CI equals 1.0, and antagonistic when it is more than 1.0 (Chou, 2006).
as §3
The activities of DTP3 and bortezomib in the U266 and KMS-12 myeloma cell lines, both as single agents and in combination, were determined using [^3H]thymidine incorporation assays, performed as described above in “Cell Proliferation, Cell Death, and Apoptosis Assays”. The IC50 values of bortezomib as single agent were determined at 48 hr using 9 concentrations of drug, ranging from 0.1 to 1,000 nM.

[5] = system: diffuse large B-cell lymphoma (DLBCL) cell lines; assay: PI nuclear staining assay, apoptotic cells in DLBCL cell lines; type: cell-based, human; settings: 6 days; sensitive and insensitive DLBCL cell lines; baseline level
Protocol: Current treatment of diffuse large B-cell lymphoma typically involves treatment with combination therapy, such as cyclophosphamide, doxorubicin, vincristine and prednisone (CHOP), or rituximab, cyclophosphamide, doxorubicin, vincristine and prednisone (R-CHOP). With those current treatments, many patients relapse and/or develop drug resistance at some point. The potential of the Gadd45β/MKK7 inhibitor DTP3 to operate in these settings was evaluated, by determining levels of apoptosis in diffuse large B-cell lymphoma cell lines known to be resistant to current therapies (HT, SU-DHL-8, U-2932, RC-K8 and RIVA, see for example Kaneko et al, Clinical Cancer Research, 2014, 20, p 1814-1820; Naylor et al, Cancer Research, 2011, Volume 71, p 2643-2653; Lyu et al, Cancer Research, 2013, Volume 73, Issue 8, Supplement 1), following treatment of those cells with DTP3. These cells have CARD11, A20 and/or MYD88 mutations and are also known to be resistant to agents such as Bruton's tyrosine kinase inhibitors, spleen tyrosine kinase inhibitors, PI3K inhibitors and/or protein kinase C inhibitors.
The percentages of apoptotic cells are depicted.
A comparison was made between the ability of DTP3 to kill various DLBCL cell lines by apoptosis in vitro. Cell lines HT, SU-DHL-8, U-2932 and RC-K8 which are known to be sensitive to DTP3; and insensitive cell lines RI-1, NU-DUL-1, TMD8, and HBL1 were used. Cell death was assessed using a standard propidium iodide (PI) nuclear staining assay followed by flow cytometry whereby the proportion of cells with a sub G1-DNA content was measured after cells had been exposed to DTP3 for 6 days at 10 μM. As controls, further populations of cells were left untreated (UT) or were treated with a scrambled D-tripeptide (SCR) for 6 days.
Apoptosis analyses were performed using propidium iodide (PI) nuclear labelling, as described previously (Riccardi and Nicoletti, 2006). Briefly, cells were seeded at a density of 2×10^5 cells/well into wells of either 24- or 48-well plates and cultured in the presence or absence of treatment, as shown. Cells were then fixed in 70% ice-cold ethanol for 16 hr, washed in PBS, and treated with ribonuclease A (50 μg/mL) for 30 min at room temperature. Samples were finally stained with PI (50 μg/mL) in 0.1% sodium citrate buffer for 2 to 4 hr at 4° C. in the dark, and data were acquired using a FACSCalibur automated system (Becton Dickinson) and analysed with FlowJo.

Gadd45β/MKK7 complex = molecular target: T1, Gadd45β/MKK7 complex (Homo sapiens, UniProt O14733); assay: co-immunoprecipitation assay; type: binding; settings: anti-FLAG immunoprecipitates, HEK-293T lysates
T1 construct: expressed in transfected cells; host or cells: human HEK-293T
T1 sequence (O14733 1-419): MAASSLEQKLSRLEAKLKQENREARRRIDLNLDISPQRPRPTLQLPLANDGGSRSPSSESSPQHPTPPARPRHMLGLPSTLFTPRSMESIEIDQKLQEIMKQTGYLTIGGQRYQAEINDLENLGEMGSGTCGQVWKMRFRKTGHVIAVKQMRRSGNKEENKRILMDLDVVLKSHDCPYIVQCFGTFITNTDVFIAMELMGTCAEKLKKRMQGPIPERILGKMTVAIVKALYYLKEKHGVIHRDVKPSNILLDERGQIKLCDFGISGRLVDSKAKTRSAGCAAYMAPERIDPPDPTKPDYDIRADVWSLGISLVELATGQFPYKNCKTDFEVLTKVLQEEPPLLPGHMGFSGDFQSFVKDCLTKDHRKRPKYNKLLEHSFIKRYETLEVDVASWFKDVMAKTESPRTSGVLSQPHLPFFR
Protocol: as §1
Co-immunoprecipitation assays were performed as described previously (Papa et al., 2004). Briefly, human HEK-293T cells were seeded at a density of 1.8-2.2×10^6 cells/dish in […] tissue-culture dishes and then transfected with pcDNA-FLAG-hMKK7 and pcDNA-HA-hGADD45β by using the calcium phosphate precipitation method (Papa et al., 2004). 48 hr after transfection, cells were washed with PBS and then lysed in lysis buffer supplemented with protease inhibitors (1 mM phenylmethylsulfonylfluoride, 10 μM chymostatin, 2 μg/mL aprotinin, 2 μg/mL leupeptin; Roche) for 30 min in ice. Cell lysates were cleared by centrifugation at 45,000×g for 40 min and then used for co-immunoprecipitations with anti-FLAG M2 Affinity Gel (Sigma-Aldrich), binding to FLAG-tagged MKK7. Western blots were developed using an anti-HA (binding to HA-hGADD45β) or an anti-MKK7 antibody. […]

[6] = molecular target: GST-MKK7 (full-length human MKK7 fused to an N-terminal GST tag) (human) (UniProt O14733); assay: ELISA Gadd45β/MKK7 competition (summary sentence on FIGS. 4 to 8)

Compound: DTP3 (Acetyl-Tyr-Arg-Phe-NH2, all residues in the D configuration)
pIC50 [1]: 9.80 | pIC50 [2]: 9.89

Compound: tetrapeptide Tyr-Glu-Arg-Phe, D configuration, NH2 group at the C terminal, benzyloxycarbonyl group at the N terminal (Cbz-[dY][dE][dR][dF]-NH2) [z-DTP2]
predicted dose required to achieve the therapeutic plasma concentration of 1 μM at the steady state (k0) [3]: 3.61 mg/kg/h | cytotoxic activity in multiple myeloma cell lines [4]: potent and dose-dependent toxicity | IC50 values in the sensitive multiple myeloma cell lines [4]: low nM to low μM

Compound: DTP3 (Acetyl-Tyr-Arg-Phe-NH2, all residues in the D configuration) (peptide)
pIC50 [6]: > 9.00

Compound: tetrapeptide Tyr-Asp-His-Phe, D-configuration, NH2 group at the C terminal, benzyloxycarbonyl group at the N terminal (Cbz-[dY][dD][dH][dF]-NH2) [z-DTP1]
cytotoxic activity in multiple myeloma cell lines [4]: potent and dose-dependent toxicity | IC50 values in the sensitive multiple myeloma cell lines [4]: low nM to low μM

Second part, led by results:

pIC50 (U266 cells): 8.22 | pIC50 (KMS-12 cells): 8.22
Compound: CC(C)C[C@H](NC(=O)[C@H](Cc1ccccc1)NC(=O)c1cnccn1)B(O)O [bortezomib, reference compound]

disruption of the Gadd45β/MKK7 complex (Gadd45β/MKK7 complex): not
Compound: Ac-Arg-Phe-Tyr-NH2 (Ac-[dR]-[dF]-[dY]-NH2) [SCRB, scrambled control D-tripeptide, reference compound]
percentage of apoptotic cells [5]: no more than 27.2%

— patent US20170240592A1, “GADD45BETA/MKK7 INHIBITOR FOR THE TREATMENT OF A RESISTANT HAEMATOLOGICAL MALIGNANCY” (IMPERIAL INNOVATIONS LIMITED, priority 2014, published 2017)
